This is an account of results in the RNAGym collection of RNA variant scans (doi:10.7554/elife.80360).

The labels stand for the following.
B1: HDV Ribozyme (parent)
chain: GGCCGGCAUGGUCCCAGCCUCCUCGCUGGCGCCGGCUGGGCAACAUUCCGAGGGGACCGUCCCCUCGGUAAUGGCGAAUGGGACCCA

In this data set the parent is B1. Kind of data set: self-cleavage, relative activity (ratio to wild type); higher = more cleavage; co-transcriptional.
For the variant A43U C75A, the self-cleavage was determined as 0.0755.

With A43U C75U, the self-cleavage was 0.128.

With C44U G50U, the self-cleavage was 0.772.

Turning to C44U G50A, the self-cleavage stood at 0.855.

As to C44U G50C, the self-cleavage worked out at 0.437.

In the case of C44U C63A, the self-cleavage was 0.819.

Regarding C44U C63G, the self-cleavage amounted to 0.594.

A45C U47A: the self-cleavage came to 0.911.

Take C44A G80U: the self-cleavage was determined as 0.118.

C44A G80C: the self-cleavage worked out at 0.109.

For C44A G80A, the self-cleavage was found to be 0.169.

In the case of C44G A83C, the self-cleavage was 0.284.

On to C44G A83U, for which the self-cleavage was found to be 0.38.

Take A45C A78G: the self-cleavage came to 0.178.

As to A45C A78U, the self-cleavage was found to be 0.229.

With A43U A77U, the self-cleavage worked out at 0.151.

With A43U A77G, the self-cleavage turned out to be 0.277.

For the variant C44U G82C, the self-cleavage came out at 0.0723.

In the case of C44G C64G, the self-cleavage came to 0.678.

Regarding C44U A45C, the self-cleavage turned out to be 0.739.

Regarding C44A C57A, the self-cleavage worked out at 0.752.

Regarding C44A C57G, the self-cleavage amounted to 0.684.

For the variant C44A A51C, the self-cleavage was found to be 0.779.

As for C44A A78G, the self-cleavage was 0.175.

With C44A A78U, the self-cleavage stood at 0.104.

In the case of C44A A83U, the self-cleavage was determined as 0.0615.

As for C44A A83C, the self-cleavage was 0.269.

Regarding A45C G76A, the self-cleavage stood at 0.869.

In the case of A45C G76C, the self-cleavage came out at 0.68.

Take A43U C57A: the self-cleavage stood at 0.69.

A45C C64A: the self-cleavage came out at 0.426.

Consider A45C C64U, for which the self-cleavage stood at 0.73.

As for C44A G50U, the self-cleavage is 0.594.

For the variant C44A G50A, the self-cleavage was found to be 0.671.

On to C44U G67A, for which the self-cleavage turned out to be 0.82.

For the variant C44G C63U, the self-cleavage came to 0.81.

For the variant C44G C63A, the self-cleavage worked out at 0.491.

For the variant C44G C49A, the self-cleavage was 0.665.

As to C44G C49U, the self-cleavage was determined as 0.617.

On to A43U U69G, for which the self-cleavage turned out to be 0.199.

Regarding A43U U69A, the self-cleavage amounted to 0.449.

With C44A C48G, the self-cleavage stood at 0.594.

For the variant C44A C48U, the self-cleavage was 0.692.

Consider A43U C66G, for which the self-cleavage is 0.47.

As for A43U G81U, the self-cleavage came out at 0.16.

Regarding A43U G81A, the self-cleavage was determined as 0.148.

For A43U G59A, the self-cleavage is 0.633.

Consider C44A C84G, for which the self-cleavage came out at 0.0519.

Turning to C44A C84A, the self-cleavage was 0.541.

A45C G67U: the self-cleavage is 0.604.

As to C44A G68C, the self-cleavage worked out at 0.764.

Consider C44A G68U, for which the self-cleavage was 0.554.

Regarding A43U A78C, the self-cleavage is 0.0817.

Consider C44U C57U, for which the self-cleavage is 0.704.

As for C44U C57G, the self-cleavage was found to be 0.612.

For the variant A43U U65C, the self-cleavage was found to be 0.298.

Regarding A43U U65A, the self-cleavage was 0.584.

With A43U G74U, the self-cleavage was 0.684.

For the variant A43U G74A, the self-cleavage was 0.261.

With C44G G73A, the self-cleavage is 0.522.

As to C44A A71U, the self-cleavage was 0.81.

As for A45C G53U, the self-cleavage came out at 0.712.

Regarding A45C G53A, the self-cleavage turned out to be 0.564.

Turning to C44A G55A, the self-cleavage worked out at 0.554.

As to C44A C86G, the self-cleavage was determined as 0.787.

Regarding C44G G80C, the self-cleavage is 0.0405.

For the variant C44U A51U, the self-cleavage turned out to be 0.789.

Take C44U A51C: the self-cleavage was found to be 0.931.

For the variant C44U A51G, the self-cleavage came out at 1.04.

Regarding A43U C84G, the self-cleavage was determined as 0.146.

With C44U G73U, the self-cleavage amounted to 0.172.

Consider C44U G73C, for which the self-cleavage is 0.47.

As for C44U G59C, the self-cleavage was 0.997.

For A43U C64A, the self-cleavage was 0.397.

C44G G76C: the self-cleavage was found to be 0.511.

On to C44G G76U, for which the self-cleavage is 1.03.

On to C44G G76A, for which the self-cleavage amounted to 0.8.

For the variant C44G U60A, the self-cleavage is 0.798.

Consider C44G U60G, for which the self-cleavage came to 0.76.

As to C44G U60C, the self-cleavage was 0.569.

For A43U G82C, the self-cleavage is 0.

With A43U G82U, the self-cleavage worked out at 0.0923.

Turning to C44U A78U, the self-cleavage was found to be 0.148.

For A43U G80C, the self-cleavage is 0.115.

In the case of A43U G80U, the self-cleavage came out at 0.173.

In the case of A43U G80A, the self-cleavage is 0.0237.

C44G A78G: the self-cleavage was 0.246.

As for C44G A78C, the self-cleavage was found to be 0.193.

Regarding A45C G68A, the self-cleavage came out at 0.686.

For A45C G68C, the self-cleavage worked out at 0.404.

For C44U A70C, the self-cleavage was determined as 0.831.

In the case of C44A G54C, the self-cleavage is 0.618.

As for C44A G54A, the self-cleavage was determined as 0.759.

As to C44A G54U, the self-cleavage is 0.794.

As to C44G G68U, the self-cleavage was found to be 0.399.

C44G G68A: the self-cleavage came to 0.677.

As to A43U G76U, the self-cleavage was 0.307.

For the variant A43U G76C, the self-cleavage is 0.181.

In the case of C44U G74U, the self-cleavage came out at 0.67.

For C44U G74C, the self-cleavage was found to be 0.233.

For C44U G74A, the self-cleavage is 0.427.

In the case of A45C G52U, the self-cleavage worked out at 0.697.

Turning to A45C G52C, the self-cleavage came to 0.752.

For A45C G52A, the self-cleavage is 0.684.

In the case of A43U U46G, the self-cleavage came to 0.185.

Turning to A43U U46C, the self-cleavage came out at 0.383.

C44A C58G: the self-cleavage came to 0.831.

Regarding A45C A51C, the self-cleavage amounted to 0.875.

For C44U G55A, the self-cleavage amounted to 0.831.

In the case of C44U G55C, the self-cleavage turned out to be 0.882.

In the case of A45C A87U, the self-cleavage turned out to be 0.531.

Take C44U A71C: the self-cleavage is 0.851.

C44U A71G: the self-cleavage amounted to 0.95.

Consider C44U A71U, for which the self-cleavage was found to be 0.972.

As to A45C C86A, the self-cleavage came out at 0.95.

In the case of A45C C86G, the self-cleavage came out at 0.465.

Consider A43U A71U, for which the self-cleavage turned out to be 0.565.

For A43U A71C, the self-cleavage was found to be 0.543.

As to C44A C49A, the self-cleavage was determined as 0.554.

Regarding C44A C49U, the self-cleavage was found to be 0.462.

On to C44A C49G, for which the self-cleavage was determined as 0.511.

C44G G81A: the self-cleavage was 0.277.

As for C44G G81U, the self-cleavage came to 0.271.

With C44G G54U, the self-cleavage worked out at 0.609.

C44A G82U: the self-cleavage came out at 0.0791.

For A43U G50C, the self-cleavage came to 0.492.

For C44G U47G, the self-cleavage was found to be 0.475.

For C44G U47C, the self-cleavage is 0.554.

Regarding C44G U47A, the self-cleavage turned out to be 0.653.

With C44G C57A, the self-cleavage is 0.944.

In the case of C44G C57G, the self-cleavage was found to be 0.458.

On to C44G C57U, for which the self-cleavage came out at 0.745.

For C44A U79A, the self-cleavage stood at 0.244.

Regarding C44A U79C, the self-cleavage was found to be 0.122.

As to A45C A77C, the self-cleavage amounted to 0.277.

Take C44G U69G: the self-cleavage is 0.443.

For the variant C44U A83G, the self-cleavage is 0.48.

In the case of C44U A83U, the self-cleavage amounted to 0.208.

As for C44U C62A, the self-cleavage is 0.665.

For C44A A87C, the self-cleavage turned out to be 0.74.

With A45C C57U, the self-cleavage is 0.73.

Consider A45C C57A, for which the self-cleavage was 0.504.

For C44A U72C, the self-cleavage is 0.467.

Regarding C44A U72A, the self-cleavage came to 0.733.

Take A45C A71U: the self-cleavage came to 1.09.

For A45C A71G, the self-cleavage stood at 1.11.

On to C44A C63G, for which the self-cleavage turned out to be 0.831.

On to C44A C63U, for which the self-cleavage worked out at 0.973.

Turning to A43U U60G, the self-cleavage was 0.394.

On to A43U U60C, for which the self-cleavage was 0.678.

As to C44G C62U, the self-cleavage was found to be 0.758.

For C44G C62G, the self-cleavage came to 0.485.

C44G C58A: the self-cleavage was 1.07.

For the variant C44G G82A, the self-cleavage turned out to be 0.309.

With C44G G82C, the self-cleavage turned out to be 0.0504.

For the variant C44U G80C, the self-cleavage worked out at 0.242.

For the variant A45C G73C, the self-cleavage came out at 0.424.

Take C44A C64G: the self-cleavage amounted to 0.814.

For C44A C64A, the self-cleavage worked out at 0.665.

In the case of A45C G54U, the self-cleavage was 0.95.

For the variant A45C G54C, the self-cleavage is 0.653.

Consider C44A G59U, for which the self-cleavage is 0.776.

With A43U G54C, the self-cleavage came to 0.196.

As to A43U G54U, the self-cleavage stood at 0.432.

C44U G54A: the self-cleavage was found to be 0.872.

C44G G67A: the self-cleavage came out at 0.65.

Consider C44G G67U, for which the self-cleavage was determined as 0.68.
